Test results published in patent US20250333461A1 (BEIJING QL BIOPHARMACEUTICAL, published 2025).

Target: human beta-Klotho (human, UniProt Q86Z14 1-1044)
Assay: cell-based or functional assay

B1: Native FGF21 (ligand)
chain: HPIPDSSPLLQFGGQVRQRYLYTDDAQQTEAHLEIREDGTVGGAADQSPESLLQLKALKPGVIQILGVKTSRFLCQRPDGALYGSLHFDPEACSFRELLLEDGYNVYQSEAHGLPLHLPGNKSPHRDPAPRGPARFLPLPGLPPALPEPPGILAPQPPDVGSSDPLSMVGPSQGRSPSYAS
B1 was tested. Which “FGF21 activity (EC50, nM); p-ERK levels, 1% HSA” value did it give?
The value was 0.96 nM.
